Source: the supplement of paper PMC11780869

System: Bacillus subtilis
Assay: cleaved RNA product abundance (RNA/gDNA barcode ratio) relative to median wild-type variant (ratio to wild type); higher = more accumulation of the downstream cleavage product
Settings: experiment (reporter, strain, medium): exp 8a: truncated aprE reporter, strain BJT201 with 2% xylose (RNase J1 expressed); cleavage site: glnRA (positions -5 to +31 mutated)
Method in brief: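 Cleaved product abundance was measured with barcoded reporter mRNAs (truncated aprE or tetM) carrying mutagenized RNase Y cleavage-site windows in the B. subtilis chromosome. Cultures in LB at 37°C grew from OD600 0.0003 to 0.3. Gel-selected cleaved RNA was reverse transcribed and barcode-sequenced with genomic DNA barcodes, and the RNA:gDNA barcode ratio per construct was scaled to the median construct bearing the unmutated site.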

In the case of “CGACATGTCCCGCTTCTTTCATTAATCCGTTACCAACTTTTTTGCTATATACATTTACCTTTTAAGAGGAGGAAT”, the “cleaved RNA product abundance” value is reported as 0.225.
With “CGACATGTCCCGCTTCTTTCATTAATCCGTTACCAAGTGTTTTGCTATATACATTTACCTTTTAAGAGGAGGAAT” the “cleaved RNA product abundance” value was 0.272.
With “CGACATGTCCCGCTTCTTTCATTAATCCGTTACCAATTGTTTTGCTATATACATTTACCTTTTAAGAGGAGGAAT” the “cleaved RNA product abundance” value was 0.16.
“CGACATGTCCCGCTTCTTTCATTAATCCGTTACCATCTGTTTTGCTATATACATTTACCTTTTAAGAGGAGGAAT” was tested, and the “cleaved RNA product abundance” value was 0.163.
“CGACATGTCCCGCTTCTTTCATTAATCCGTTACCGACTGTTTTGCTATATACATTTACCTTTTAAGAGGAGGAAT” was tested, and the “cleaved RNA product abundance” value was 0.269.
“CGACATGTCCCGCTTCTTTCATTAATCCGTTACCTACTGTTTTGCTATATACATTTACCTTTTAAGAGGAGGAAT” was tested, and the “cleaved RNA product abundance” value was 0.443.
In the case of “CGACATGTCCCGCTTCTTTCATTAATCCGTTACGAACTGTTTTGCTATATACATTTACCTTTTAAGAGGAGGAAT”, the “cleaved RNA product abundance” value is reported as 0.291.
For “CGACATGTCCCGCTTCTTTCATTAATCCGTTACTAACTGTTTTGCTATATACATTTACCTTTTAAGAGGAGGAAT”, the “cleaved RNA product abundance” value was 0.155.
In the case of “CGACATGTCCCGCTTCTTTCATTAATCCGTTAGAAAATGTTTTGCTATAAACATTTACCTTTTAAGAGGAGGAAT”, the “cleaved RNA product abundance” value is reported as 0.166.
With “CGACATGTCCCGCTTCTTTCATTAATCCGTTAGAAAATGTTTTGCTATATACATTTACCTTTTAAGAGGAGGAAT” the “cleaved RNA product abundance” value was 0.396.
In the case of “CGACATGTCCCGCTTCTTTCATTAATCCGTTAGAAACAGTTTTGCTATATATATTTACATTTTAAGAGGAGGAAT”, the “cleaved RNA product abundance” value is reported as 0.362.
For “CGACATGTCCCGCTTCTTTCATTAATCCGTTAGAAACTATTTTGCTATATACATTTACCTTTTAAGAGGAGGAAT”, the “cleaved RNA product abundance” value was 0.339.
With “CGACATGTCCCGCTTCTTTCATTAATCCGTTAGAAACTCTTTTGCTATATACATTTACCTTTTAAGAGGAGGAAT” the “cleaved RNA product abundance” value was 0.377.
For “CGACATGTCCCGCTTCTTTCATTAATCCGTTAGAAACTGATTTGCTATATACATTTACCTTTTAAGAGGAGGAAT”, the “cleaved RNA product abundance” value was 0.194.
In the case of “CGACATGTCCCGCTTCTTTCATTAATCCGTTAGAAACTGCTTTGCTATATACATTTACCTTTTAAGAGGAGGAAT”, the “cleaved RNA product abundance” value is reported as 0.146.
With “CGACATGTCCCGCTTCTTTCATTAATCCGTTAGAAACTGTATTGCTATATACATTTACCTTTTAAGAGGAGGAAT” the “cleaved RNA product abundance” value was 0.321.
“CGACATGTCCCGCTTCTTTCATTAATCCGTTAGAAACTGTTGTGCTATATACATTTACCTTTTAAGAGGAGGAAT” was tested, and the “cleaved RNA product abundance” value was 0.361.
“CGACATGTCCCGCTTCTTTCATTAATCCGTTAGAAACTGTTTAGCTATATACATTTACCTTTTAAGAGGAGGAAT” was tested, and the “cleaved RNA product abundance” value was 0.295.
“CGACATGTCCCGCTTCTTTCATTAATCCGTTAGAAACTGTTTCGCTATATACATTTACCTTTTAAGAGGAGGAAT” was tested, and the “cleaved RNA product abundance” value was 0.12.
“CGACATGTCCCGCTTCTTTCATTAATCCGTTAGAAACTGTTTTACTATATACATTTACCTTTTAAGAGGAGGAAT” was tested, and the “cleaved RNA product abundance” value was 0.422.
With “CGACATGTCCCGCTTCTTTCATTAATCCGTTAGAAACTGTTTTCCTATATACATTTACCTTTTAAGAGGAGGAAT” the “cleaved RNA product abundance” value was 0.317.
“CGACATGTCCCGCTTCTTTCATTAATCCGTTAGAAACTGTTTTGATATATACATTTACCTTTTAAGAGGAGGAAT” was tested, and the “cleaved RNA product abundance” value was 0.221.
For “CGACATGTCCCGCTTCTTTCATTAATCCGTTAGAAACTGTTTTGCTAAATACATTTACCTTTTAAGAGGAGGAAT”, the “cleaved RNA product abundance” value was 0.241.
“CGACATGTCCCGCTTCTTTCATTAATCCGTTAGAAACTGTTTTGCTAGATACATTTACCTTTTAAGAGGAGGAAT” was tested, and the “cleaved RNA product abundance” value was 0.255.
For “CGACATGTCCCGCTTCTTTCATTAATCCGTTAGAAACTGTTTTGCTATAAACATTTACCTTTTAAGAGGAGGAAT”, the “cleaved RNA product abundance” value was 0.203.
In the case of “CGACATGTCCCGCTTCTTTCATTAATCCGTTAGAAACTGTTTTGCTATACACATTTACCTTTTAAGAGGAGGAAT”, the “cleaved RNA product abundance” value is reported as 0.253.
For “CGACATGTCCCGCTTCTTTCATTAATCCGTTAGAAACTGTTTTGCTATATAAATTTACCTTTTAAGAGGAGGAAT”, the “cleaved RNA product abundance” value was 0.256.
“CGACATGTCCCGCTTCTTTCATTAATCCGTTAGAAACTGTTTTGCTATATACACTTACCTTTTAAGAGGAGGAAT” was tested, and the “cleaved RNA product abundance” value was 0.157.
With “CGACATGTCCCGCTTCTTTCATTAATCCGTTAGAAACTGTTTTGCTATATACAGTTACCTTTTAAGAGGAGGAAT” the “cleaved RNA product abundance” value was 0.361.
With “CGACATGTCCCGCTTCTTTCATTAATCCGTTAGAAACTGTTTTGCTATATACATATACCTTTTAAGAGGAGGAAT” the “cleaved RNA product abundance” value was 0.244.
With “CGACATGTCCCGCTTCTTTCATTAATCCGTTAGAAACTGTTTTGCTATATACATCTACCTTTTAAGAGGAGGAAT” the “cleaved RNA product abundance” value was 0.228.
For “CGACATGTCCCGCTTCTTTCATTAATCCGTTAGAAACTGTTTTGCTATATACATTAACCTTTTAAGAGGAGGAAT”, the “cleaved RNA product abundance” value was 0.374.
“CGACATGTCCCGCTTCTTTCATTAATCCGTTAGAAACTGTTTTGCTATATACATTTACATTTTAAGAGGAGGAAT” was tested, and the “cleaved RNA product abundance” value was 0.34.
In the case of “CGACATGTCCCGCTTCTTTCATTAATCCGTTAGAAACTGTTTTGCTATATACATTTACCTTTTAAGAGGAGGAAT”, the “cleaved RNA product abundance” value is reported as 0.292.
For “CGACATGTCCCGCTTCTTTCATTAATCCGTTAGAAACTGTTTTGCTATATACATTTACTTTTTAAGAGGAGGAAT”, the “cleaved RNA product abundance” value was 0.331.
In the case of “CGACATGTCCCGCTTCTTTCATTAATCCGTTAGAAACTGTTTTGCTATATACATTTATCTTTTAAGAGGAGGAAT”, the “cleaved RNA product abundance” value is reported as 0.384.
“CGACATGTCCCGCTTCTTTCATTAATCCGTTAGAAACTGTTTTGCTATATACTTTTACCTTTTAAGAGGAGGAAT” was tested, and the “cleaved RNA product abundance” value was 0.217.
In the case of “CGACATGTCCCGCTTCTTTCATTAATCCGTTAGAAACTGTTTTGCTATATATATTTACCTTTTAAGAGGAGGAAT”, the “cleaved RNA product abundance” value is reported as 0.272.
In the case of “CGACATGTCCCGCTTCTTTCATTAATCCGTTAGAAACTGTTTTGCTATATTCATTTACCTTTTAAGAGGAGGAAT”, the “cleaved RNA product abundance” value is reported as 0.268.
“CGACATGTCCCGCTTCTTTCATTAATCCGTTAGAAACTGTTTTGCTATTTACATTTACCTTTTAAGAGGAGGAAT” was tested, and the “cleaved RNA product abundance” value was 0.127.
With “CGACATGTCCCGCTTCTTTCATTAATCCGTTAGAAACTGTTTTGCTGTATACATTCATCTTTTAAGAGGAGGAAT” the “cleaved RNA product abundance” value was 0.0887.
“CGACATGTCCCGCTTCTTTCATTAATCCGTTAGAAACTGTTTTGCTGTATACATTTACCTTTTAAGAGGAGGAAT” was tested, and the “cleaved RNA product abundance” value was 0.085.
“CGACATGTCCCGCTTCTTTCATTAATCCGTTAGAAACTGTTTTGGTATATACATTTACCTTTTAAGAGGAGGAAT” was tested, and the “cleaved RNA product abundance” value was 0.104.
“CGACATGTCCCGCTTCTTTCATTAATCCGTTAGAAACTGTTTTTCTATATACATTTACCTTTTAAGAGGAGGAAT” was tested, and the “cleaved RNA product abundance” value was 0.511.
With “CGACATGTCCCGCTTCTTTCATTAATCCGTTAGAAACTTTTTTGCTATATACATTTACCTTTTAAGAGGAGGAAT” the “cleaved RNA product abundance” value was 0.287.
In the case of “CGACATGTCCCGCTTCTTTCATTAATCCGTTAGAAAGTGTTTTGCTATATACATTTACCTTTTAAGAGGAGGAAT”, the “cleaved RNA product abundance” value is reported as 0.368.
With “CGACATGTCCCGCTTCTTTCATTAATCCGTTAGAAATTGTTTTGCTATATACATTTACCTTTTAAGAGGAGGAAT” the “cleaved RNA product abundance” value was 0.342.
“CGACATGTCCCGCTTCTTTCATTAATCCGTTAGAACCTGTTTTGCTATATACATTTACCTTTTAAGAGGAGGAAT” was tested, and the “cleaved RNA product abundance” value was 0.229.
With “CGACATGTCCCGCTTCTTTCATTAATCCGTTAGAAGCTGTTTTGCTATATACATTTACCTTTTAAGAGGAGGAAT” the “cleaved RNA product abundance” value was 0.23.
With “CGACATGTCCCGCTTCTTTCATTAATCCGTTAGAATCTGTTTTGCTATATACATTTACCTTTTAAGAGGAGGAAT” the “cleaved RNA product abundance” value was 0.239.
In the case of “CGACATGTCCCGCTTCTTTCATTAATCCGTTAGATACTGTTTTGCTATATACATTTACCTTTTAAGAGGAGGAAT”, the “cleaved RNA product abundance” value is reported as 0.273.
For “CGACATGTCCCGCTTCTTTCATTAATCCGTTAGCAAATATTTTGCTATATACATTTACCTTTTAAGAGGAGGAAT”, the “cleaved RNA product abundance” value was 0.843.
With “CGACATGTCCCGCTTCTTTCATTAATCCGTTAGCAAATGATTTGCTATATACATTTACCTTTTAAGAGGAGGAAT” the “cleaved RNA product abundance” value was 1.28.
With “CGACATGTCCCGCTTCTTTCATTAATCCGTTAGCAAATGGTTTGCTATATACATTTACCTTTTAAGAGGAGGAAT” the “cleaved RNA product abundance” value was 0.732.
“CGACATGTCCCGCTTCTTTCATTAATCCGTTAGCAAATGTTATGCTATATACATTTACCTTTTAAGAGGAGGAAT” was tested, and the “cleaved RNA product abundance” value was 0.766.
“CGACATGTCCCGCTTCTTTCATTAATCCGTTAGCAAATGTTTAGCTATATACATTTACCTTTTAAGAGGAGGAAT” was tested, and the “cleaved RNA product abundance” value was 0.503.
For “CGACATGTCCCGCTTCTTTCATTAATCCGTTAGCAAATGTTTGGCTATATACATTTACCTTTTAAGAGGAGGAAT”, the “cleaved RNA product abundance” value was 0.43.
With “CGACATGTCCCGCTTCTTTCATTAATCCGTTAGCAAATGTTTTACTATATACATTTACCTTTTAAGAGGAGGAAT” the “cleaved RNA product abundance” value was 0.73.
In the case of “CGACATGTCCCGCTTCTTTCATTAATCCGTTAGCAAATGTTTTCCTATATACACTTACCTTTTAAGAGGAGGAAT”, the “cleaved RNA product abundance” value is reported as 0.377.
With “CGACATGTCCCGCTTCTTTCATTAATCCGTTAGCAAATGTTTTGATATATACATTTACCTTTTAAGAGGAGGAAT” the “cleaved RNA product abundance” value was 0.418.
For “CGACATGTCCCGCTTCTTTCATTAATCCGTTAGCAAATGTTTTGCAATATACATTTACCTTTTAAGAGGAGGAAT”, the “cleaved RNA product abundance” value was 0.304.
“CGACATGTCCCGCTTCTTTCATTAATCCGTTAGCAAATGTTTTGCTACATACATTTACCTTTTAAGAGGAGGAAT” was tested, and the “cleaved RNA product abundance” value was 0.354.
For “CGACATGTCCCGCTTCTTTCATTAATCCGTTAGCAAATGTTTTGCTATAAACATTTACCTTTTAAGAGGAGGAAT”, the “cleaved RNA product abundance” value was 0.584.
“CGACATGTCCCGCTTCTTTCATTAATCCGTTAGCAAATGTTTTGCTATACACATTTACCTTTTAAGAGGAGGAAT” was tested, and the “cleaved RNA product abundance” value was 0.444.
For “CGACATGTCCCGCTTCTTTCATTAATCCGTTAGCAAATGTTTTGCTATATAAATTTACCTTTTAAGAGGAGGAAT”, the “cleaved RNA product abundance” value was 0.499.
In the case of “CGACATGTCCCGCTTCTTTCATTAATCCGTTAGCAAATGTTTTGCTATATACAATTACCTTTTAAGAGGAGGAAT”, the “cleaved RNA product abundance” value is reported as 1.76.
